Assay results: the supplement of paper PMC10598134
± gives the standard deviation.

Test: collision cross section of modified peptide (TIMS, N2, iRT-aligned); higher = larger / more extended gas-phase ion
Procedure, shortened: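 Collision cross section values rest on the Mason-Schamp equation applied to calibrated, run-aligned mobility data from synthetic peptides. Mobility (1/K0) was calibrated with three reference ions and aligned per run to the median iRT peptide deviation, and 1–3 technical replicates of the most abundant feature per charge state were averaged. Data came from a timsTOF Pro/HT in dda-PASEF mode (nitrogen, ~2.4 mbar) after a 120-min nanoflow C18 gradient at 60 °C.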

[1] = charge state: 2, modification: Acetyl (K)
[2] = charge state: 3, modification: Acetyl (K)
[3] = charge state: 2, modification: Butyryl
[4] = charge state: 3, modification: Butyryl
[5] = charge state: 2, modification: Crotonyl
[6] = charge state: 3, modification: Crotonyl
[7] = charge state: 3, modification: Dimethyl (K)
[8] = charge state: 2, modification: Formyl
[9] = charge state: 2, modification: Glutarylation
[10] = charge state: 3, modification: Glutarylation
[11] = charge state: 2, modification: GlyGly (K)
[12] = charge state: 3, modification: GlyGly (K)
[13] = charge state: 2, modification: Malonyl
[14] = charge state: 3, modification: Malonyl
[15] = charge state: 3, modification: Methyl (K)
[16] = charge state: 2, modification: Succinyl
[17] = charge state: 3, modification: Trimethyl (K)
[18] = charge state: 2, modification: hydroxyisobutyryl
[19] = charge state: 3, modification: hydroxyisobutyryl
[20] = charge state: 2, modification: HexNAc (ST)
[21] = charge state: 2, modification: Biotin
[22] = charge state: 2, modification: Dimethyl (K)
[23] = charge state: 3, modification: Formyl
[24] = charge state: 2, modification: Methyl (K)
[25] = charge state: 2, modification: Propionyl
[26] = charge state: 3, modification: Propionyl
[27] = charge state: 3, modification: Succinyl
[28] = charge state: 2, modification: Trimethyl (K)

## VLATQPGPGRGR [_VLATQPGPGR(Citrullination (R))GR_]
Charge state: 2, modification: Citrullination (R)
  collision cross section: 364.01 ± 0.27 Å²
Charge state: 3, modification: Citrullination (R)
  collision cross section: 447.25 Å²

## VLATQPGPGRGR [_VLATQPGPGR(Methyl (R))GR_]
Charge state: 2, modification: Methyl (R)
  collision cross section: 376.85 ± 0.74 Å²
Charge state: 3, modification: Methyl (R)
  collision cross section: 455.74 ± 9.5 Å²

## VLDSGAPIKIPVGPETLGR [_VLDSGAPIK(Acetyl (K))IPVGPETLGR_]
[1]
  collision cross section: 463.33 ± 3.4 Å²
[2]
  collision cross section: 505.97 Å²

## VLDSGAPIKIPVGPETLGR [_VLDSGAPIK(Butyryl)IPVGPETLGR_]
[3]
  collision cross section: 472.51 ± 0.49 Å²
[4]
  collision cross section: 512.04 ± 1.8 Å²

## VLDSGAPIKIPVGPETLGR [_VLDSGAPIK(Crotonyl)IPVGPETLGR_]
[5]
  collision cross section: 470.51 ± 1.1 Å²
[6]
  collision cross section: 511.83 ± 1.6 Å²

## VLDSGAPIKIPVGPETLGR [_VLDSGAPIK(Dimethyl (K))IPVGPETLGR_]
[7]
  collision cross section: 506.24 ± 0.56 Å²

## VLDSGAPIKIPVGPETLGR [_VLDSGAPIK(Formyl)IPVGPETLGR_]
[8]
  collision cross section: 463.34 ± 1.2 Å²

## VLDSGAPIKIPVGPETLGR [_VLDSGAPIK(Gluratylation)IPVGPETLGR_]
[9]
  collision cross section: 465.83 ± 1.5 Å²
[10]
  collision cross section: 505.05 ± 1 Å²

## VLDSGAPIKIPVGPETLGR [_VLDSGAPIK(GlyGly (K))IPVGPETLGR_]
[11]
  collision cross section: 467.11 ± 1.6 Å²
[12]
  collision cross section: 510.19 ± 1.1 Å²

## VLDSGAPIKIPVGPETLGR [_VLDSGAPIK(Malonyl)IPVGPETLGR_]
[13]
  collision cross section: 468.64 ± 1.6 Å²
[14]
  collision cross section: 512.64 ± 6.2 Å²

## VLDSGAPIKIPVGPETLGR [_VLDSGAPIK(Methyl (K))IPVGPETLGR_]
[15]
  collision cross section: 510.82 ± 2.8 Å²

## VLDSGAPIKIPVGPETLGR [_VLDSGAPIK(Succinyl)IPVGPETLGR_]
[16]
  collision cross section: 470.32 ± 0.95 Å²

## VLDSGAPIKIPVGPETLGR [_VLDSGAPIK(Trimethyl (K))IPVGPETLGR_]
[17]
  collision cross section: 508.9 ± 0.87 Å²

## VLDSGAPIKIPVGPETLGR [_VLDSGAPIK(hydroxyisobutyryl)IPVGPETLGR_]
[18]
  collision cross section: 472.45 ± 0.87 Å²
[19]
  collision cross section: 522.22 ± 1.2 Å²

## VLPSITTEILK [_VLPS(HexNAc (ST))ITTEILK_]
[20]
  collision cross section: 396.57 Å²

## VLSIGDGIAR [_VLS(HexNAc (ST))IGDGIAR_]
[20]
  collision cross section: 372.66 ± 0.12 Å²

## VLTANSNPSSPSAAKR [_VLTANSNPSSPSAAK(Acetyl (K))R_]
[1]
  collision cross section: 425 ± 2.5 Å²
[2]
  collision cross section: 527.55 ± 2.3 Å²

## VLTANSNPSSPSAAKR [_VLTANSNPSSPSAAK(Biotin)R_]
[21]
  collision cross section: 443.24 ± 0.79 Å²
Charge state: 3, modification: Biotin
  collision cross section: 547.09 ± 3.1 Å²

## VLTANSNPSSPSAAKR [_VLTANSNPSSPSAAK(Butyryl)R_]
[3]
  collision cross section: 432.84 ± 1.8 Å²
[4]
  collision cross section: 531.28 ± 2.7 Å²

## VLTANSNPSSPSAAKR [_VLTANSNPSSPSAAK(Crotonyl)R_]
[5]
  collision cross section: 433.68 ± 1.1 Å²
[6]
  collision cross section: 528.16 ± 1.7 Å²

## VLTANSNPSSPSAAKR [_VLTANSNPSSPSAAK(Dimethyl (K))R_]
[22]
  collision cross section: 441.07 ± 1.1 Å²
[7]
  collision cross section: 518.06 ± 0.76 Å²

## VLTANSNPSSPSAAKR [_VLTANSNPSSPSAAK(Formyl)R_]
[8]
  collision cross section: 421.8 ± 0.8 Å²
[23]
  collision cross section: 501.92 ± 27 Å²

## VLTANSNPSSPSAAKR [_VLTANSNPSSPSAAK(Gluratylation)R_]
[9]
  collision cross section: 432.88 ± 2 Å²
[10]
  collision cross section: 532.45 ± 0.12 Å²

## VLTANSNPSSPSAAKR [_VLTANSNPSSPSAAK(GlyGly (K))R_]
[11]
  collision cross section: 445.95 ± 0.95 Å²
[12]
  collision cross section: 511.93 ± 0.35 Å²

## VLTANSNPSSPSAAKR [_VLTANSNPSSPSAAK(Malonyl)R_]
[13]
  collision cross section: 426.78 ± 1.6 Å²
[14]
  collision cross section: 452.99 Å²

## VLTANSNPSSPSAAKR [_VLTANSNPSSPSAAK(Methyl (K))R_]
[24]
  collision cross section: 432.87 ± 1.5 Å²
[15]
  collision cross section: 521.25 ± 1.8 Å²

## VLTANSNPSSPSAAKR [_VLTANSNPSSPSAAK(Propionyl)R_]
[25]
  collision cross section: 429.75 ± 0.38 Å²
[26]
  collision cross section: 528.16 ± 0.65 Å²

## VLTANSNPSSPSAAKR [_VLTANSNPSSPSAAK(Succinyl)R_]
[16]
  collision cross section: 430.61 ± 1.1 Å²
[27]
  collision cross section: 526.23 ± 1.1 Å²

## VLTANSNPSSPSAAKR [_VLTANSNPSSPSAAK(Trimethyl (K))R_]
[28]
  collision cross section: 445.51 ± 0.016 Å²
[17]
  collision cross section: 518.89 ± 1.6 Å²

## VLTANSNPSSPSAAKR [_VLTANSNPSSPSAAK(hydroxyisobutyryl)R_]
[18]
  collision cross section: 434.9 ± 0.8 Å²
[19]
  collision cross section: 533.81 ± 2 Å²

## VMVAPISGSVTTGTK [_VMVAPIS(HexNAc (ST))GSVTTGTK_]
[20]
  collision cross section: 423.51 ± 0.62 Å²

## VNALKNLQVK [_VNALK(Acetyl (K))NLQVK_]
[1]
  collision cross section: 369.79 ± 0.48 Å²

## VNALKNLQVK [_VNALK(Biotin)NLQVK_]
[21]
  collision cross section: 393.86 ± 0.23 Å²

## VNALKNLQVK [_VNALK(Butyryl)NLQVK_]
[3]
  collision cross section: 377.18 ± 0.8 Å²

## VNALKNLQVK [_VNALK(Crotonyl)NLQVK_]
[5]
  collision cross section: 376.57 ± 0.8 Å²

## VNALKNLQVK [_VNALK(Dimethyl (K))NLQVK_]
[22]
  collision cross section: 371.74 ± 0.57 Å²
[7]
  collision cross section: 421.1 Å²

## VNALKNLQVK [_VNALK(Formyl)NLQVK_]
[8]
  collision cross section: 363.1 ± 0.39 Å²

## VNALKNLQVK [_VNALK(Gluratylation)NLQVK_]
[9]
  collision cross section: 376.79 ± 0.1 Å²

## VNALKNLQVK [_VNALK(GlyGly (K))NLQVK_]
[11]
  collision cross section: 383.13 ± 0.38 Å²
[12]
  collision cross section: 444.03 ± 1.9 Å²

## VNALKNLQVK [_VNALK(Malonyl)NLQVK_]
[13]
  collision cross section: 368.09 ± 0.62 Å²

## VNALKNLQVK [_VNALK(Methyl (K))NLQVK_]
[24]
  collision cross section: 371.4 ± 0.45 Å²
[15]
  collision cross section: 420.52 ± 3.9 Å²

## VNALKNLQVK [_VNALK(Propionyl)NLQVK_]
[25]
  collision cross section: 372.11 ± 0.65 Å²

## VNALKNLQVK [_VNALK(Succinyl)NLQVK_]
[16]
  collision cross section: 370.5 ± 1.8 Å²

## VNALKNLQVK [_VNALK(Trimethyl (K))NLQVK_]
[28]
  collision cross section: 379.91 ± 0.019 Å²
[17]
  collision cross section: 418.46 ± 2.4 Å²

## VNALKNLQVK [_VNALK(hydroxyisobutyryl)NLQVK_]
[18]
  collision cross section: 374.85 ± 0.8 Å²

## VNIGQGSHPQKVK [_VNIGQGSHPQK(Acetyl (K))VK_]
[1]
  collision cross section: 426.92 ± 2.1 Å²
[2]
  collision cross section: 478.98 ± 3.2 Å²

## VNIGQGSHPQKVK [_VNIGQGSHPQK(Butyryl)VK_]
[3]
  collision cross section: 432.28 ± 0.24 Å²
[4]
  collision cross section: 485.89 ± 2.6 Å²

## VNIGQGSHPQKVK [_VNIGQGSHPQK(Crotonyl)VK_]
[5]
  collision cross section: 430.6 ± 0.84 Å²
[6]
  collision cross section: 487.14 ± 1.3 Å²

## VNIGQGSHPQKVK [_VNIGQGSHPQK(Dimethyl (K))VK_]
[22]
  collision cross section: 407.47 ± 1.1 Å²
[7]
  collision cross section: 469.28 Å²

## VNIGQGSHPQKVK [_VNIGQGSHPQK(Formyl)VK_]
[8]
  collision cross section: 425.2 ± 1.4 Å²
[23]
  collision cross section: 472.74 ± 2.1 Å²

## VNIGQGSHPQKVK [_VNIGQGSHPQK(Gluratylation)VK_]
[9]
  collision cross section: 424.75 ± 1.8 Å²
[10]
  collision cross section: 494.72 ± 8.3 Å²

## VNIGQGSHPQKVK [_VNIGQGSHPQK(GlyGly (K))VK_]
[11]
  collision cross section: 422.43 ± 1.1 Å²
[12]
  collision cross section: 490.21 ± 0.72 Å²

## VNIGQGSHPQKVK [_VNIGQGSHPQK(Malonyl)VK_]
[13]
  collision cross section: 424.04 ± 0.57 Å²

## VNIGQGSHPQKVK [_VNIGQGSHPQK(Methyl (K))VK_]
[24]
  collision cross section: 409.02 ± 0.54 Å²
[15]
  collision cross section: 465.41 ± 17 Å²

## VNIGQGSHPQKVK [_VNIGQGSHPQK(Propionyl)VK_]
[26]
  collision cross section: 485.17 ± 0.74 Å²

## VNIGQGSHPQKVK [_VNIGQGSHPQK(Succinyl)VK_]
[16]
  collision cross section: 423.92 ± 1.1 Å²
[27]
  collision cross section: 481.33 ± 2 Å²

## VNIGQGSHPQKVK [_VNIGQGSHPQK(Trimethyl (K))VK_]
[28]
  collision cross section: 405.12 ± 1.9 Å²
[17]
  collision cross section: 473.39 ± 2.7 Å²

## VNIGQGSHPQKVK [_VNIGQGSHPQK(hydroxyisobutyryl)VK_]
[18]
  collision cross section: 435.4 ± 0.33 Å²
[19]
  collision cross section: 488.96 ± 2.8 Å²

## VNVEAPDVNLEGLGGKLK [_VNVEAPDVNLEGLGGK(Acetyl (K))LK_]
[1]
  collision cross section: 460.53 ± 2.8 Å²
[2]
  collision cross section: 542.09 Å²

## VNVEAPDVNLEGLGGKLK [_VNVEAPDVNLEGLGGK(Butyryl)LK_]
[3]
  collision cross section: 466.95 ± 0.75 Å²
[4]
  collision cross section: 548.3 ± 0.14 Å²

## VNVEAPDVNLEGLGGKLK [_VNVEAPDVNLEGLGGK(Crotonyl)LK_]
[5]
  collision cross section: 459.79 Å²

## VNVEAPDVNLEGLGGKLK [_VNVEAPDVNLEGLGGK(Dimethyl (K))LK_]
[22]
  collision cross section: 464.65 Å²
[7]
  collision cross section: 539.12 ± 0.61 Å²

## VNVEAPDVNLEGLGGKLK [_VNVEAPDVNLEGLGGK(Formyl)LK_]
[8]
  collision cross section: 459.19 ± 1.2 Å²
